{"source": "the RNAGym collection of RNA variant scans (doi:10.1073/pnas.2313332121)", "parents": {"B1": {"name": "TPR 5TU (parent)", "chain": "GGAUCUUCUCGAUCUAACAAAAAAGACAAAUCUGCCACAAAGCUUGAGAGCAUCUUCGGAUGCAGAGGCGGCAGCCUUCGGUGGCGCGAUAGCGCCAACGUUCUCAACUAUGACACGCAAAACGCGUGCUCCGUUGAAUGGAGUUUAUCAUG"}}, "note": "This sample holds only a part of the variants without activity."}
{"variants_of": "B1", "assay": "polymerase ribozyme fitness, log enrichment relative to wild type (log ratio); higher = more active; in vitro selection for triplet polymerase activity", "method_in_brief": "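A heterodimeric triplet polymerase ribozyme had each of its subunits mutagenized by PCR into a library, which was transcribed. One round of in vitro selection, done in triplicate, annealed each library with a biotinylated primer, its partner subunit and triplets, then incubated it frozen at −7 °C before gel excision of extended constructs, streptavidin-bead capture and RT-PCR. Fitness is the logarithm of genotype enrichment relative to wild-type enrichment, based on Illumina sequencing of inputs and outputs and inverse-variance-weighted replicate averages. A base-2 logarithm is used, and genotypes were kept only with ≥10 input reads and ≥1 read per output.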"}
{"variant": "U6A A30C G58C A60U C76G A106U C149G", "polymerase ribozyme fitness (log ratio)": "≤ -4.2"}
{"variant": "U6A C27A C85G", "polymerase ribozyme fitness (log ratio)": "≤ -4.2"}
{"variant": "U7C A17G A23U A52C C76G C85U C93A G128U G152C", "polymerase ribozyme fitness (log ratio)": "≤ -4.2"}
{"variant": "U7A C85U", "polymerase ribozyme fitness (log ratio)": -2.9}
{"variant": "U6C U61A C85U A97C A120G", "polymerase ribozyme fitness (log ratio)": -3.12}
{"variant": "U6A U61A C93A", "polymerase ribozyme fitness (log ratio)": "≤ -4.2"}
{"variant": "U6A A29G G74A C103G A107G A122U", "polymerase ribozyme fitness (log ratio)": "≤ -4.2"}
{"variant": "U6G U78G C93U A98G A142C", "polymerase ribozyme fitness (log ratio)": -3.99}
{"variant": "U6G C27U A49C C79G A89U C93U C132A", "polymerase ribozyme fitness (log ratio)": "≤ -4.2"}
{"variant": "U6G U13G C57G", "polymerase ribozyme fitness (log ratio)": -2.26}
{"variant": "U7A C18U A91U A97U U102C U144G", "polymerase ribozyme fitness (log ratio)": "≤ -4.2"}
{"variant": "U7A C35A C87A C93A", "polymerase ribozyme fitness (log ratio)": "≤ -4.2"}
{"variant": "U7A A28G A40U A49C G50C C87A U144G", "polymerase ribozyme fitness (log ratio)": "≤ -4.2"}
{"variant": "U6G C85A C87G A98U A106C U148A", "polymerase ribozyme fitness (log ratio)": "≤ -4.2"}
{"variant": "U7A C8G A89C C95G", "polymerase ribozyme fitness (log ratio)": "≤ -4.2"}
{"variant": "U7A A28U A40U U55A C57A C76U U78G C96G C123G", "polymerase ribozyme fitness (log ratio)": "≤ -4.2"}
{"variant": "U6G U31C G50A A147C", "polymerase ribozyme fitness (log ratio)": -2.65}
{"variant": "U6G G34C A52U A89G C93A A107U A115U A150C", "polymerase ribozyme fitness (log ratio)": "≤ -4.2"}
{"variant": "U6C C85U A121U U135C", "polymerase ribozyme fitness (log ratio)": -3.27}
{"variant": "U6G A41C G42A U56C C85A C99A", "polymerase ribozyme fitness (log ratio)": "≤ -4.2"}
{"variant": "U6A A24C G48A C93U U127G U144A", "polymerase ribozyme fitness (log ratio)": "≤ -4.2"}
{"variant": "U6G C10G G50C U55A G58A C72G C95U C96U U144G U148A", "polymerase ribozyme fitness (log ratio)": "≤ -4.2"}
{"variant": "U6A G25A A26C G50U A52G C76G C118G G136A", "polymerase ribozyme fitness (log ratio)": "≤ -4.2"}
{"variant": "U6G G100A A107U A113U", "polymerase ribozyme fitness (log ratio)": "≤ -4.2"}
{"variant": "U6C A17U U33C C51G C57G G83U C95G A98G U127G", "polymerase ribozyme fitness (log ratio)": "≤ -4.2"}
{"variant": "U7A C14G C32U A106G U148C", "polymerase ribozyme fitness (log ratio)": "≤ -4.2"}
{"variant": "U6C C129G", "polymerase ribozyme fitness (log ratio)": -3.13}
{"variant": "U7A A49C C103A U139A", "polymerase ribozyme fitness (log ratio)": "≤ -4.2"}
{"variant": "U6G C27A U33C C85A G88A U134C", "polymerase ribozyme fitness (log ratio)": "≤ -4.2"}
{"variant": "U6G C10A A16G A20C U53A C54G A64U C85U G86A A113U U145C", "polymerase ribozyme fitness (log ratio)": "≤ -4.2"}
{"variant": "U6G C10G C87G", "polymerase ribozyme fitness (log ratio)": "≤ -4.2"}
{"variant": "U6G A122C", "polymerase ribozyme fitness (log ratio)": -0.304}
{"variant": "U7A G11A A41G A66C U77C C85U A106C U151A", "polymerase ribozyme fitness (log ratio)": "≤ -4.2"}
{"variant": "U6G A26C G136A A142U U146A", "polymerase ribozyme fitness (log ratio)": "≤ -4.2"}
{"variant": "U6A C27U A41C U55A G62C G71C C85A G143U", "polymerase ribozyme fitness (log ratio)": "≤ -4.2"}
{"variant": "U6G C87U C131U", "polymerase ribozyme fitness (log ratio)": 0.928}
{"variant": "U7C A20U C96A C103U U109C G152U", "polymerase ribozyme fitness (log ratio)": -3.42}
{"variant": "U6G G59A G92A C95A C105U", "polymerase ribozyme fitness (log ratio)": -4.19}
{"variant": "U6C U61A G68C G84A G88U A121G G124A", "polymerase ribozyme fitness (log ratio)": "≤ -4.2"}
{"variant": "U6C G11A A37G A52G G86A G100A", "polymerase ribozyme fitness (log ratio)": "≤ -4.2"}
{"variant": "U7A A20G C35U A47G G83A C96A", "polymerase ribozyme fitness (log ratio)": "≤ -4.2"}
{"variant": "U6C C87A G88U C96A A120U C123U", "polymerase ribozyme fitness (log ratio)": "≤ -4.2"}
{"variant": "U6G A19U G50C G88U C99G", "polymerase ribozyme fitness (log ratio)": "≤ -4.2"}
{"variant": "U6A U7G U31C G34A A41U", "polymerase ribozyme fitness (log ratio)": -3.68}
{"variant": "U7A A17U A19C C38U G58U G86A G92C", "polymerase ribozyme fitness (log ratio)": "≤ -4.2"}
{"variant": "U6G G58C C131A", "polymerase ribozyme fitness (log ratio)": -2.15}
{"variant": "U6G A26G A29C A47U C63U G84A G136U G143C U151A", "polymerase ribozyme fitness (log ratio)": "≤ -4.2"}
{"variant": "U6A C51U A52U U56A G83U G84A C114U", "polymerase ribozyme fitness (log ratio)": "≤ -4.2"}
{"variant": "U6G G92A", "polymerase ribozyme fitness (log ratio)": -2.59}
{"variant": "U6G A28U", "polymerase ribozyme fitness (log ratio)": -3.76}
{"variant": "U6C C10A A24U A110G", "polymerase ribozyme fitness (log ratio)": "≤ -4.2"}
{"variant": "U6G A16U G58A G141U", "polymerase ribozyme fitness (log ratio)": -1.34}
{"variant": "U6C A49C U55A U104C U146C", "polymerase ribozyme fitness (log ratio)": "≤ -4.2"}
{"variant": "U6C U9A A30U A49U C85U U146C", "polymerase ribozyme fitness (log ratio)": "≤ -4.2"}
{"variant": "U6C C10U A20C A122C", "polymerase ribozyme fitness (log ratio)": "≤ -4.2"}
{"variant": "U6A C57G C105U", "polymerase ribozyme fitness (log ratio)": 0.464}
{"variant": "U6C C14U U44A G68U G92U A98G C99G", "polymerase ribozyme fitness (log ratio)": "≤ -4.2"}
{"variant": "U7C A12C A24C C96U A120C", "polymerase ribozyme fitness (log ratio)": "≤ -4.2"}
{"variant": "U6A G11U A23C G25A C36A G50C C125U", "polymerase ribozyme fitness (log ratio)": "≤ -4.2"}
{"variant": "U6C A39C A66G U90A C93A C99A G100C C103A C116G A147C", "polymerase ribozyme fitness (log ratio)": "≤ -4.2"}
{"variant": "U7C A12C C87A C105A C116G A138U G152U", "polymerase ribozyme fitness (log ratio)": "≤ -4.2"}
{"variant": "U6G C54G A73U U102A A106G U127G C132G U135G", "polymerase ribozyme fitness (log ratio)": "≤ -4.2"}
{"variant": "U6G C75U", "polymerase ribozyme fitness (log ratio)": 0.374}
{"variant": "U6G C87U", "polymerase ribozyme fitness (log ratio)": -0.579}
{"variant": "U6G C87G", "polymerase ribozyme fitness (log ratio)": -3.6}
{"variant": "U7A U111G", "polymerase ribozyme fitness (log ratio)": -4.19}
{"variant": "U6G G46A U56C C76G G81C A91C A106G A137U U144C U151A", "polymerase ribozyme fitness (log ratio)": "≤ -4.2"}
{"variant": "U6G U53A", "polymerase ribozyme fitness (log ratio)": -0.949}
{"variant": "U6A C14G C85G U90G A113U", "polymerase ribozyme fitness (log ratio)": "≤ -4.2"}
{"variant": "U7C A19U C35U A37G U55G C76G G86A G88U C103G G124A", "polymerase ribozyme fitness (log ratio)": "≤ -4.2"}
{"variant": "U6G A22C C35A G58C G74U C76U U78C G133U U151C", "polymerase ribozyme fitness (log ratio)": "≤ -4.2"}
{"variant": "U7C A12G C96U", "polymerase ribozyme fitness (log ratio)": -2.17}
{"variant": "U6G A24U A119U G136U", "polymerase ribozyme fitness (log ratio)": -3.74}
{"variant": "U6G C114A", "polymerase ribozyme fitness (log ratio)": -3.22}
{"variant": "U6C U13C C14U G34A G80C A91G", "polymerase ribozyme fitness (log ratio)": "≤ -4.2"}
{"variant": "U6C U31C C57A C96G", "polymerase ribozyme fitness (log ratio)": -1.1}
{"variant": "U6C A41G U56G G59A U61G C76A A91C C95G G124A", "polymerase ribozyme fitness (log ratio)": "≤ -4.2"}
{"variant": "U6A C85U G140C", "polymerase ribozyme fitness (log ratio)": -3.99}
{"variant": "U6G A22U A40G C57A G94A", "polymerase ribozyme fitness (log ratio)": -2.43}
{"variant": "U6C U13G C43G C76U U90A U151G", "polymerase ribozyme fitness (log ratio)": "≤ -4.2"}
{"variant": "U6A A26C A98U G136U", "polymerase ribozyme fitness (log ratio)": -4.09}
{"variant": "U6C A19C A26G C85G C108A", "polymerase ribozyme fitness (log ratio)": "≤ -4.2"}
{"variant": "U6A G80C G94A", "polymerase ribozyme fitness (log ratio)": "≤ -4.2"}
{"variant": "U6G C69U G84A A106C", "polymerase ribozyme fitness (log ratio)": -2.47}
